Target: T1, CFP-10 carrying an N-terminal HIS tag, produced by BCG::2F9-HIS-EsxB (Mycobacterium tuberculosis, UniProt P9WNK5 2-100)
T1 sequence: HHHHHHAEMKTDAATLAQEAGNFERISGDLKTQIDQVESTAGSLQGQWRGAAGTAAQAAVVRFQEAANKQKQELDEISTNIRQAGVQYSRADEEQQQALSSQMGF
Assay: Ni-NTA co-purification, Coomassie gel and western blot

B1: 6 kDa early secreted antigenic target (ESAT-6), native, encoded by esxA (other)
chain: TEQQWNFAGIEAAASAIQGNVTSIHSLLDEGKQSLTKLAAAWGGSGSEAYQGVQQKWDATATELNNALQNLARTISEAGQAMASTEGNVTGMFA
Question: Does B1 bind?
Answer: binds
